Results on three molecules are retold here after patent US6541008 (UNIVERSITY OF OTAGO, dated 2003).

For assay [1], the target named is chimeric receptor consisting of the extracellular domain of mouse VEGFR-2 and the transmembrane and … (mouse, UniProt P35918 20-762; P14753 250-507, limits assumed). Description: cell-based or functional assay.
The target in assay [2] is T1, VEGFR-3-Ig (human, UniProt P35916 25-775).
T1 construct: extracellular domain; also called soluble Ig-fusion protein containing the extracellular domain of human VEGFR-3; not shown: Fc portion of human IgG1
T1 sequence (looked up): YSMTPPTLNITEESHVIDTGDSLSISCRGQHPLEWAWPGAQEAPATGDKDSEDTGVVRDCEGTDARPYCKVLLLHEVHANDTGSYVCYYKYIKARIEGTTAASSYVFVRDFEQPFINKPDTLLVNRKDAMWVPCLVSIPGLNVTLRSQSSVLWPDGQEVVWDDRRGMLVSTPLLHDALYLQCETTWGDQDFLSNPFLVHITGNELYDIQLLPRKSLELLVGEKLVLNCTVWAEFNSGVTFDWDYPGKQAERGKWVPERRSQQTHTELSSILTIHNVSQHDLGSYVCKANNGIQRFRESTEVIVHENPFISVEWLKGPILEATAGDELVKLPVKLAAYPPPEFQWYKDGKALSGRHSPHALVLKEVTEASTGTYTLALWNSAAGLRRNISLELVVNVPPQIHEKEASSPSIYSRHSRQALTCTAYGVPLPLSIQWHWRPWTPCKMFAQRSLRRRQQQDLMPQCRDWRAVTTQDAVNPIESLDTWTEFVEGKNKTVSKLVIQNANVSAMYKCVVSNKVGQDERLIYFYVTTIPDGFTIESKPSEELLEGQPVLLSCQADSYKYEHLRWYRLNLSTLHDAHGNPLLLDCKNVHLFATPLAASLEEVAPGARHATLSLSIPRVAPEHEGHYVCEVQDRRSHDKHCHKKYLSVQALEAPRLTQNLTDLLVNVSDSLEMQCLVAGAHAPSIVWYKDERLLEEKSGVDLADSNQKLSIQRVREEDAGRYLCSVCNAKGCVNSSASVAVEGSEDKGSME
Description: precipitation of 35S-labeled conditioned medium with receptor-Ig on protein A-Sepharose, SDS-PAGE, phosphorimager. The method, then: (§1) To further assess the interactions between ORFV2-VEGF and the VEGFRs, ORFV2-VEGF was tested for its capacity to bind to soluble Ig-fusion proteins containing the extracellular domains of human VEGFR-1, VEGFR-2 and VEGFR-3. The fusion proteins, designated VEGFR-1-Ig, VEGFR-2-Ig and VEGFR-3-Ig, were transiently expressed in 293 EBNA cells. All Ig fusion proteins were human VEGFRs. Cells were incubated for 24 hours after transfection, washed with DMEM containing 0.2% bovine serum albumin and starved for 24 hours. The fusion proteins were then precipitated from the clarified conditioned medium using protein A-Sepharose beads. The beads were combined with 100 µl of 10x binding buffer (5% bovine serum albumin, 0.2% Tween 20 and 10 µg/ml heparin) and 900 µl of conditioned medium from 293 cells that had been transfected with expression plasmids encoding VEGF, VEGF-DΔNΔC,ORFV2-VEGF or control vector, then metabolically labeled with ^35S-cysteine/methionine for 4 to 16 hours. After 2.5 hours, at room temperature, the Sepharose beads were washed 3 times with binding buffer at 4° C., once with phosphate buffered saline and boiled in SDS-PAGE buffer. Labeled proteins that were bound to the Ig-fusion proteins were analyzed by SDS-PAGE under reducing conditions. Radiolabeled proteins were detected using a phosphorimager analyzer.

Assay [3] addresses T2, VEGFR-2-Ig (human, UniProt P35968 20-764).
T2 construct: extracellular domain; also called soluble Ig-fusion protein containing the extracellular domain of human VEGFR-2; not shown: Fc portion of human IgG1
The assay is described as above. As to the method:
as §1

Assay [4] addresses T3, VEGFR-1-Ig (human, UniProt P17948 27-758).
T3 construct: extracellular domain; also called soluble Ig-fusion protein containing the extracellular domain of human VEGFR-1; not shown: Fc portion of human IgG1
The description is as above. As to the method:
as §1

The target of assay [5] is T3, VEGFR-1-Ig. Description: not described; told in Example 3 with the receptor-Ig precipitations.

T3 sequence (P17948 27-758): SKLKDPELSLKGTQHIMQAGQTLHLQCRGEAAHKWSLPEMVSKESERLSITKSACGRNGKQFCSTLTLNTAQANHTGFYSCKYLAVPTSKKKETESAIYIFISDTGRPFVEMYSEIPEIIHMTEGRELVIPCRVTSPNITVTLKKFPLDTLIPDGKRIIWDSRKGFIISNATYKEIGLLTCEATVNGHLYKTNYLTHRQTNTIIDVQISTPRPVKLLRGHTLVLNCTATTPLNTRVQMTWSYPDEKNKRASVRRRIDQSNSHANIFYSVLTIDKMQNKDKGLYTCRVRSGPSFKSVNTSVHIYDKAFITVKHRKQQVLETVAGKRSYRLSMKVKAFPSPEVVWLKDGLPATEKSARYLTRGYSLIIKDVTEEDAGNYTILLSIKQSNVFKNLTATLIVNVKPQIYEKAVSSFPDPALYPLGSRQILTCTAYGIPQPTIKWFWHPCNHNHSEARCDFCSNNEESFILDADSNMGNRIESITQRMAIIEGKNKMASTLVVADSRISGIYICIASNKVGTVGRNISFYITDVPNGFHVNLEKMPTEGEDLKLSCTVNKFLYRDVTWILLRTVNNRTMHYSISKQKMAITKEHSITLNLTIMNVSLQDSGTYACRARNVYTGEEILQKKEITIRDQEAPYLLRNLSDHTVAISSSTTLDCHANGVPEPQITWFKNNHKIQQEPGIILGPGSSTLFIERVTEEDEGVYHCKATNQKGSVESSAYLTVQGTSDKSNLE
T2 sequence (P35968 20-764): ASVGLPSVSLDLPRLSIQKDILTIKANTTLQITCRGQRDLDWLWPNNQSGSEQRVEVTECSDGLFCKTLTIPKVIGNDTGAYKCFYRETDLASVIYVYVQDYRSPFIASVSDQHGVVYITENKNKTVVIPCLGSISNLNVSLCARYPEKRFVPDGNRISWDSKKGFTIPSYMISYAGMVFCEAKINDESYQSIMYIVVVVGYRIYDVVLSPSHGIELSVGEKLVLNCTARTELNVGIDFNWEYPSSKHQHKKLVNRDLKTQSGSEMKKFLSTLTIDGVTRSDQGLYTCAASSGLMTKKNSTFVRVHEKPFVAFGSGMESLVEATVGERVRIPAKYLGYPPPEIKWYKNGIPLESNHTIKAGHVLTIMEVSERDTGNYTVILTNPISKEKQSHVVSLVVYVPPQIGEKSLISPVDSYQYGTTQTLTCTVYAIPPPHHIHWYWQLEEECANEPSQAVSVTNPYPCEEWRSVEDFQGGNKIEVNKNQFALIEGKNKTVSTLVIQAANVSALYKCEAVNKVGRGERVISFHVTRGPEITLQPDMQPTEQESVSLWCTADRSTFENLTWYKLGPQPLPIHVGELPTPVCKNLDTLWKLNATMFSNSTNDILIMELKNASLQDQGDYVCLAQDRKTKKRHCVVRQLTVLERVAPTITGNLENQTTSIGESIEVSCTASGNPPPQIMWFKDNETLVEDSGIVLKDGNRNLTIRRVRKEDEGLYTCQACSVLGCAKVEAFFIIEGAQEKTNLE
Chain of chimeric receptor consisting of the extracellular domain of mouse VEGFR-2 and the transmembrane and … (P35918 other isoform, or with tags, fused parts or gaps mutant limits assumed): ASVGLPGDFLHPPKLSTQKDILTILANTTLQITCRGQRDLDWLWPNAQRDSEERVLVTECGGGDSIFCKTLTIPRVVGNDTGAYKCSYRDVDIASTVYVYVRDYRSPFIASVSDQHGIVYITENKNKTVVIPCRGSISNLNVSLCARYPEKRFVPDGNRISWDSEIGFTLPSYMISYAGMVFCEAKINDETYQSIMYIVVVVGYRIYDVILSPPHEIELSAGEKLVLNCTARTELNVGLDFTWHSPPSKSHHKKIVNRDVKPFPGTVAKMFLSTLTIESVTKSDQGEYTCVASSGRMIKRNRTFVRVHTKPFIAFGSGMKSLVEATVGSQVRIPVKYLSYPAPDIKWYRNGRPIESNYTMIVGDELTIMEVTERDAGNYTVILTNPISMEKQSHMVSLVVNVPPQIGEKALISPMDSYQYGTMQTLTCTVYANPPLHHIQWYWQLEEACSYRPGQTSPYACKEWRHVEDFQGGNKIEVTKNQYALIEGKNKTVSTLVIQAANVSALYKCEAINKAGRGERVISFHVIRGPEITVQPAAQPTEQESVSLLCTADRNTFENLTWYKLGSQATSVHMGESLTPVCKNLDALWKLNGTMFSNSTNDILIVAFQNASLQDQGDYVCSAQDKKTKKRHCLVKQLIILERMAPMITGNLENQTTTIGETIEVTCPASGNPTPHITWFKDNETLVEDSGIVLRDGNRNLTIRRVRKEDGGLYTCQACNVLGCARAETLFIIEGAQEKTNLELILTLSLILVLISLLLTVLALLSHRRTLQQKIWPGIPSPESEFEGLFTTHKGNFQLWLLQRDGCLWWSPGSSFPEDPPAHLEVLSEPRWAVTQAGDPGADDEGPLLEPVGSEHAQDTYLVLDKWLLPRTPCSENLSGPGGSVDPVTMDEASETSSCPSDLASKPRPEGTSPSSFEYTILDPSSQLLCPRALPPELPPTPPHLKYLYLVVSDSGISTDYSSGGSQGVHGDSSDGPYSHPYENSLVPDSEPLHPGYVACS

B1: FLAG-tagged ORFV2-VEGF (ligand)
chain: DSNTKGWSEVLKGSECKPRPIVVPVSETHPELTSQRFNPPCVTLMRCGGCCNDESLECVPTEEVNVTMELLGASGSGSNGMQRLSFVEHKKCDCRPRFTTTPPTTTRPPRRRR
notes: Disulfide-linked homodimer, glycosylated; Expressed in COS or 293EBNA cells; also called NZ2; ORVF2-VEGF; not shown: FLAG octapeptide at the C-terminus
Regarding B1, the “potency in the Ba/F3 VEGFR-2-EpoR bioassay compared to mouse VEGF” value in assay [1] is ~4 fold less potent than mouse VEGF. The binding result in assay [2] is listed as “no binding”; in assay [3], “binds”; in assay [4], “no binding”.

B2: FLAG-tagged NZ10 (ligand)
chain: DSTKTWSEVFESSKCKPRPTVVPVGEAHPELTSQRFNPQCVTVMRCGGCCNDESLECVPTEEANVTMQLMGASVSGGNGMQHLIFVEHKKCDCKPRLTTTPPTTTRPPRRRR
notes: Disulfide-linked homodimer, secreted from 293EBNA-1 cells and purified on M2-gel; also called ORFV10-VEGF; not shown: FLAG octapeptide at the C-terminus
Take B2: the binding result in assay [5] is recorded as “no binding”.

B3: mouse VEGF164 (ligand, UniProt Q00731-2 27-190, looked up)
chain: APTTEGEQKSHEVIKFMDVYQRSYCRPIETLVDIFQEYPDEIEYIFKPSCVPLMRCAGCCNDEALECVPTSESNITMQIMRIKPHQSQHIGEMSFLQHSRCECRPKKDRTKPENHCEPCSERRKHLFVQDPQTCKCSCKNTDSRCKARQLELNERTCRCDKPRR
B3: the binding result in assay [2] is recorded as “no binding”; in assay [3], “binds”; in assay [4], “binds”.
